What all share (assay): cell-based or functional assay
In one assay the target is human GLP-1 receptor (human, UniProt P43220 24-463).
A further assay deals with T1, human GIP receptor (human, UniProt P48546 22-466).
T1 sequence (looked up): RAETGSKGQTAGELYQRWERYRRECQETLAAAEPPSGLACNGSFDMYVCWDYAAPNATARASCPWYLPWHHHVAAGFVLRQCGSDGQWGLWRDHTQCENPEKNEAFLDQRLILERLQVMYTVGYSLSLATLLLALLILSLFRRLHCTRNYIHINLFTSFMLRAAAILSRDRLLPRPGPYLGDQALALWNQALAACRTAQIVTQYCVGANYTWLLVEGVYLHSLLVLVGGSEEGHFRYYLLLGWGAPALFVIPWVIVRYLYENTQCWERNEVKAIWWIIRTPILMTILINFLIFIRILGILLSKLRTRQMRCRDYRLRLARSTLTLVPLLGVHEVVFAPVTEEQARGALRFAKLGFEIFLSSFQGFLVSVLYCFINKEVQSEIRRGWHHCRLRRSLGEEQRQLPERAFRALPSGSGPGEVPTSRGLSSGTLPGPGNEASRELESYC

For a further assay, the target named is human GCG receptor (human, UniProt P47871 26-477).
human GCG receptor, sequence (P47871 26-477): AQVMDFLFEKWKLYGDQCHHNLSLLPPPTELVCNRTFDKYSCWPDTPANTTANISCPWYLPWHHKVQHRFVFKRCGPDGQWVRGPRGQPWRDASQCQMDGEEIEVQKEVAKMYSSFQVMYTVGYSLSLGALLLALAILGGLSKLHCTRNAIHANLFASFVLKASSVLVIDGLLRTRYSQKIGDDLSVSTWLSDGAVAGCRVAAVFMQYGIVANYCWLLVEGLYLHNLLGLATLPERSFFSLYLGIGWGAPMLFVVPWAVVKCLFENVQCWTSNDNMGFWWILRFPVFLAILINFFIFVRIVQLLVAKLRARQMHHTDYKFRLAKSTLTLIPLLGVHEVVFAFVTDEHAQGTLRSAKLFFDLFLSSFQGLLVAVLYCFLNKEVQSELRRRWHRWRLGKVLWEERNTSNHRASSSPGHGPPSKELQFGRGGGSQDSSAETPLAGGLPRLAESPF

Bridges are numbered along the chain shown (N, C = ends). Where no end group is shown, it is not given here. [ ]: non-standard residue; d: D form. Aib = CC(C)(N)C(=O)O

Experimental findings from patent US20240024426A1, “HYPOTENSIVE PHARMACEUTICAL COMPOSITION COMPRISING TRIPLE ACTIVATOR HAVING ACTIVITY FOR ALL OF GLUCAGON, GLP-1, AND GIP RECEPTORS” (HANMI PHARM. CO., LTD., priority 2020, published 2024) are described below.

Turning to H[Aib]QGTFTSDYSKYLDEKACKDFVQWLLDGGPSSGAPPPS (bridge 16-20) [Triple agonist of SEQ ID NO: 32], in the assay with human GLP-1 receptor, the “In vitro activity compared with native peptide (%) vs. GLP-1” value (“In vitro activity … (%) vs. GLP-1” for short) was determined as 151%. For the same molecule, in the assay with human GIP receptor, the “In vitro activity compared with native peptide (%) vs. GIP” value (“In vitro activity … (%) vs. GIP” below) is 8.8%. The “In vitro activity compared with native peptide (%) vs. Glucagon” value (“In vitro activity … (%) vs. Glucagon” for short) in the assay with human GCG receptor worked out at 1.7%.

Take H[Aib]QGTFTSDCSKYLDSRAAQDFVQWLLDGGPSSGAPPPS [Triple agonist of SEQ ID NO: 26]: the “In vitro activity … (%) vs. GLP-1” value with human GLP-1 receptor was 64.5%. Besides, in the assay with human GIP receptor, the “In vitro activity … (%) vs. GIP” value is under 0.1%. In addition, in the assay with human GCG receptor, the “In vitro activity … (%) vs. Glucagon” value was 0.2%.

H[Aib]QGTFTSDYSKYLDEKAQKEFVQWLLDTC (bridge 16-20) [Triple agonist of SEQ ID NO: 30]: in the assay with human GLP-1 receptor, the “In vitro activity … (%) vs. GLP-1” value was found to be 142%. Also, in the assay with human GIP receptor, the “In vitro activity … (%) vs. GIP” value was found to be 0.8%. Moreover, the “In vitro activity … (%) vs. Glucagon” value with human GCG receptor was 0.7%.

Consider H[Aib]QGTFTSDYSIAMDEIHQKDFVNWLLAQKC (bridge 16-20) [Triple agonist of SEQ ID NO: 33], for which the “In vitro activity … (%) vs. GLP-1” value in the assay with human GLP-1 receptor was found to be 24.5%. Moreover, in the assay with human GIP receptor, the “In vitro activity … (%) vs. GIP” value turned out to be 10.4%. In addition, the “In vitro activity … (%) vs. Glucagon” value with human GCG receptor is under 0.1%.

In the case of H[Aib]QGTFTSDYSKYLDEKAAKEFVQWLLNTC (bridge 16-20) [Triple agonist of SEQ ID NO: 29], in the assay with human GLP-1 receptor, the “In vitro activity … (%) vs. GLP-1” value is 38.5%. Further, the “In vitro activity … (%) vs. GIP” value in the assay with human GIP receptor is under 0.1%. The “In vitro activity … (%) vs. Glucagon” value with human GCG receptor stood at 6%.

As for H[Aib]QGTFTSDYSKYLDERACQDFVQWLLDQGGPSSGAPPPS [Triple agonist of SEQ ID NO: 27], in the assay with human GLP-1 receptor, the “In vitro activity … (%) vs. GLP-1” value came to 83.1%. For the same molecule, the “In vitro activity … (%) vs. GIP” value in the assay with human GIP receptor was 0.9%. For the same molecule, the “In vitro activity … (%) vs. Glucagon” value with human GCG receptor was 0.8%.

Regarding H[Aib]QGTFTSDYSKYLDEKRAQEFVCWLLAQKGKKNDWKHNIT [Triple agonist of SEQ ID NO: 28], the “In vitro activity … (%) vs. GLP-1” value with human GLP-1 receptor was determined as 17.2%. Besides, the “In vitro activity … (%) vs. GIP” value in the assay with human GIP receptor was under 0.1%. Further, the “In vitro activity … (%) vs. Glucagon” value with human GCG receptor stood at 1.6%.

As to H[Aib]QGTFTSDYSKYLDEKACKEFVQWLLAQ (bridge 16-20) [Triple agonist of SEQ ID NO: 31], in the assay with human GLP-1 receptor, the “In vitro activity … (%) vs. GLP-1” value came out at 135%. For the same molecule, in the assay with human GIP receptor, the “In vitro activity … (%) vs. GIP” value turned out to be 2.4%. Besides, the “In vitro activity … (%) vs. Glucagon” value in the assay with human GCG receptor came out at 2.2%.
